Values of other authors in paper PMC9607845.
pKd: −log10 of the molar value. Where two headings read alike, the source gives them in different places. Values belong to the substance of their own block, whether it stands above or below them.

What was measured:
[1] = target: p63 peptide (Homo sapiens) (UniProt Q9H3D4)
[2] = target: p73 peptide (Homo sapiens) (UniProt O15350)
[3] = target: p63 peptide (Homo sapiens) (UniProt Q9H3D4); remark: listed apart in the source
[4] = target: p73 peptide (Homo sapiens) (UniProt O15350); remark: listed apart in the source
[5] = target: Mig6 segment 1 peptide segment 1 (Homo sapiens) (UniProt Q9UJM3)
Chain of Mig6 segment 1 peptide segment 1 (Homo sapiens) (Q9UJM3 334-363): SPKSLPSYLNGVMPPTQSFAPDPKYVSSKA

[6] = target: Mig6 segment 1 peptide (Homo sapiens) (UniProt Q9UJM3)
Chain of Mig6 segment 1 peptide (Homo sapiens) (Q9UJM3 336-364): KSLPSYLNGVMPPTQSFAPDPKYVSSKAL

[7] = target: SMRT peptide (Homo sapiens) (UniProt Q9Y618)
Chain of SMRT peptide (Homo sapiens) (Q9Y618 whole entry): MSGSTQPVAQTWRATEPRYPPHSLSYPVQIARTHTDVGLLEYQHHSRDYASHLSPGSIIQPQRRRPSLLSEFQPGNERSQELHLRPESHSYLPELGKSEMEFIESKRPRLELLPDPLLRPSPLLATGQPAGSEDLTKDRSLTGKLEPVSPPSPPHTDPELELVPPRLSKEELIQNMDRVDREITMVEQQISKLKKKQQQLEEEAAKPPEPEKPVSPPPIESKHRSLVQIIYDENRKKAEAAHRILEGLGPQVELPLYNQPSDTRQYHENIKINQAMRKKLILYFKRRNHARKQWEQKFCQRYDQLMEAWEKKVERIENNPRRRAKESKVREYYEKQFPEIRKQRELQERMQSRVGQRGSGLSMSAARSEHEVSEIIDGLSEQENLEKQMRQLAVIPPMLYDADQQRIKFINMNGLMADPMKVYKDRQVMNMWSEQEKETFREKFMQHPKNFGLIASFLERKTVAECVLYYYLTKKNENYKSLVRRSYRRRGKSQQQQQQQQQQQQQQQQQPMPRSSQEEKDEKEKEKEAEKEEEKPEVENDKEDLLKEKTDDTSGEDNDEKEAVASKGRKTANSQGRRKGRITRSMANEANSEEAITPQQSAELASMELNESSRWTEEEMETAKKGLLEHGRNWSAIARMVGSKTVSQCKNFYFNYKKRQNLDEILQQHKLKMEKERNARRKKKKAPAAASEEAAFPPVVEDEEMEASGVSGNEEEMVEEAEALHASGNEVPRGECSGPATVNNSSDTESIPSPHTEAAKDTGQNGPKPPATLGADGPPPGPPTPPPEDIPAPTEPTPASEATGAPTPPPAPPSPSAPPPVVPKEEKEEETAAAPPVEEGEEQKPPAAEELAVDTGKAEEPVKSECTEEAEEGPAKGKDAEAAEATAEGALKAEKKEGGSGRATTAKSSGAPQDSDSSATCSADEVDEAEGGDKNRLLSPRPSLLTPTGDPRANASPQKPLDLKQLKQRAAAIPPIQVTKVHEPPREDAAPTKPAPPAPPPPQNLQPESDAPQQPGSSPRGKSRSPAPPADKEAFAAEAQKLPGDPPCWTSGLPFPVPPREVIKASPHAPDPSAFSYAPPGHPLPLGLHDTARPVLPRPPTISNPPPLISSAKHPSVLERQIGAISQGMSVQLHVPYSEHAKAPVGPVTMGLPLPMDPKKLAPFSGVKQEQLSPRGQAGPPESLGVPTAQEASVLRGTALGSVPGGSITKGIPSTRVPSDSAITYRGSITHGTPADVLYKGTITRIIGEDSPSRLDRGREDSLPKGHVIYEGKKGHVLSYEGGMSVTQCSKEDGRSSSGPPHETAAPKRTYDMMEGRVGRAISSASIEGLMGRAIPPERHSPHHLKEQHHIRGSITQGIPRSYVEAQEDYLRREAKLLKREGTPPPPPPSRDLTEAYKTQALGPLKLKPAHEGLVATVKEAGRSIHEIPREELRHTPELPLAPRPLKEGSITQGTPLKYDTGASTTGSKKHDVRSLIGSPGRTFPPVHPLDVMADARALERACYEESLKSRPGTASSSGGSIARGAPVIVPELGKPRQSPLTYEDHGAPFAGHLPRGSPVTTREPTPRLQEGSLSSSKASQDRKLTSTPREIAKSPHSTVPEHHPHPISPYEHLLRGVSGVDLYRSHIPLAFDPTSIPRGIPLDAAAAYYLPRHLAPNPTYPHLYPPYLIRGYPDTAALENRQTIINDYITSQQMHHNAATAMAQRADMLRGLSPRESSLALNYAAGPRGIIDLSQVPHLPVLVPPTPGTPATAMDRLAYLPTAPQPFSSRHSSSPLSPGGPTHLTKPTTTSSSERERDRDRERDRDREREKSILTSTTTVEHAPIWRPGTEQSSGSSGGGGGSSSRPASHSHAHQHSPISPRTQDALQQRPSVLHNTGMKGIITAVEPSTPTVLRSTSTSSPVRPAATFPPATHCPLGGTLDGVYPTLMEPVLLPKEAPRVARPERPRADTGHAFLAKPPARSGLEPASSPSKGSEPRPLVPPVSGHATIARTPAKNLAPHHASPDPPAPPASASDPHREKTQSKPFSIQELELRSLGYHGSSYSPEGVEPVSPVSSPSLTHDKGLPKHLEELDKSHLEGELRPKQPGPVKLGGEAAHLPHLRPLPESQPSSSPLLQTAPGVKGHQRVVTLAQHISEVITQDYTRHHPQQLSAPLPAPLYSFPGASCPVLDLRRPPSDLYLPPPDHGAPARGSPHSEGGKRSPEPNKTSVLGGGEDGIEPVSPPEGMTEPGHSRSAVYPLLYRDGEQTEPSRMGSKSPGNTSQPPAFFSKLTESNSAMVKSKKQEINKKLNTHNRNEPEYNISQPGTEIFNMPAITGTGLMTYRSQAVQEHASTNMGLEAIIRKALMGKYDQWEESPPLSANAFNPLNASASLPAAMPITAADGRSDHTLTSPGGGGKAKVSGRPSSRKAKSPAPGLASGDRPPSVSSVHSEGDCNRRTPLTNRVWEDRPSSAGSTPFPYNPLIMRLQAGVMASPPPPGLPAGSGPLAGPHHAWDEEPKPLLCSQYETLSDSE

[8] = target: SMRT SMRT peptide (Homo sapiens) (UniProt Q9Y618)
[9] = target: BCOR BCOR peptide (Homo sapiens) (UniProt Q6W2J9)
[10] = target: BCOR peptide (Homo sapiens) (UniProt Q6W2J9)

Chain of MDM2 MDM2N (Q00987 17-125): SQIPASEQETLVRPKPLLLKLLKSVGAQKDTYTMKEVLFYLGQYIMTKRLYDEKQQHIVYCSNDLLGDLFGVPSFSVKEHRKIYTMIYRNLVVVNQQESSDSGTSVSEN
Chain of p73 peptide (Homo sapiens) (O15350 whole entry): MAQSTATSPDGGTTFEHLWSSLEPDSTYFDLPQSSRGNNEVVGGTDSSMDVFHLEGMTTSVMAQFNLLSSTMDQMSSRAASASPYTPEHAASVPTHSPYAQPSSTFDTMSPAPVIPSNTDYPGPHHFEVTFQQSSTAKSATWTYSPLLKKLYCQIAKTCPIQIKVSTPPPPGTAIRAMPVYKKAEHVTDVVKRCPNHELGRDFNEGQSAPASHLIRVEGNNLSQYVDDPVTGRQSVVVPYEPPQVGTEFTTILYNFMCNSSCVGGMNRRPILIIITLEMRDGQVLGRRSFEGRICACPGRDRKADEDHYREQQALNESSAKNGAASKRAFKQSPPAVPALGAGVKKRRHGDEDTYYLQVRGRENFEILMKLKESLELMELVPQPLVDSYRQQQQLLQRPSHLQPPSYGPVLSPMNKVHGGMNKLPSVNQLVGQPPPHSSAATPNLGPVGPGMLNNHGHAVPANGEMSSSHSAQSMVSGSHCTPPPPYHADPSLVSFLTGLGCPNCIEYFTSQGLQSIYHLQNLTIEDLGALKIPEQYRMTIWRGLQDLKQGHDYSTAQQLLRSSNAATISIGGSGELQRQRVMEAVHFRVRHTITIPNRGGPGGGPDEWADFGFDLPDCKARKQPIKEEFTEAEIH
Chain of p63 peptide (Homo sapiens) (Q9H3D4 whole entry): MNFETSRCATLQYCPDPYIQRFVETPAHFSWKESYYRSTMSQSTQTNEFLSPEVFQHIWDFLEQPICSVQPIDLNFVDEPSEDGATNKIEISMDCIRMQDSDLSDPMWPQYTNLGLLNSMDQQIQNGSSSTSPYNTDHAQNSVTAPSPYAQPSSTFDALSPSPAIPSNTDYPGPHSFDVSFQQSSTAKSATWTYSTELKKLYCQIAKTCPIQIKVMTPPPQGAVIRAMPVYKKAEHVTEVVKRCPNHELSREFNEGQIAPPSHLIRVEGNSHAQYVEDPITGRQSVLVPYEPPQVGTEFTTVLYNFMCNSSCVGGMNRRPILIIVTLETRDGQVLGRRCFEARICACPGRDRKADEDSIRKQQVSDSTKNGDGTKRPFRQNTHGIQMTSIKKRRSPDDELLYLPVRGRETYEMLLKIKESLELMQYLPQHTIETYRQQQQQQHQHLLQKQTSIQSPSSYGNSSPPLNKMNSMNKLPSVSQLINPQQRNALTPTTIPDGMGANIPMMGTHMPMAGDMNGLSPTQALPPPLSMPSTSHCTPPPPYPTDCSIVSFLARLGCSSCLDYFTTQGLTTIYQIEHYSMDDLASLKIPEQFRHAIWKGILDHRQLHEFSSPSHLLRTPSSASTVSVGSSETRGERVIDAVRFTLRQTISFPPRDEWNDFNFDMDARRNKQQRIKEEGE

- pKd [1]: 4.59
- pKd [2]: 5.85
Substance: MDM2 MDM2N (from UniProt Q00987)

- pKd [3]: 4.59
- pKd [4]: 5.85
Substance: MDM2 N-terminal domain (from UniProt Q00987)

- pKd [5]: 4.89
- pKd [6]: 4.89
Substance: EGFR kinase domain C-lobe (from UniProt P00533)

- pKd [7]: 4.96
- pKd [8]: 4.96
- pKd [9]: 5.89
- pKd [10]: 5.89
Substance: Bcl6 BTB (from UniProt P41182)
